Measured values as given in patent US20260167731A1 (DOMAIN THERAPEUTICS, published 2026).
“And” between values parts separate entries of the source, which are not always exact repeats. Identical values can stand only once.

Key:
human CCR8 [1] = target: T1, human CCR8 (human, UniProt P51685 1-355); experiment: cell-based or functional assay
human CCR8 [2] = target: T1, human CCR8; experiment: cell-based or functional assay; remark: listed apart in the source
human CCR8 [3] = target: T1, human CCR8; experiment: cell-based or functional assay; remark: listed apart in the source
human CCR8 [4] = target: T1, human CCR8; experiment: cell-based or functional assay; remark: listed apart in the source
human CCR8 [5] = target: T1, human CCR8; experiment: flow cytometry, hCCR8 transfected CHOK1 cells
Protocol: The same staining protocol was applied on human CCR8 transfected CHO cell line versus wild type CHO cell line, cutaneous T cell lymphoma HUT78 cell line and human activated T cell model.
Briefly, 1·10⁵ cells per well in a 96 well plate were incubated with a dilution of unconjugated anti-CCR8 mAb at 10 μg/mL then diluted at 1/3.33, 4 dilution points (during 30 min at 4° C.). In human activated T cells model, prior to mAb incubation, cells were first incubated with 200 nM of hCCL1 (R&D Systems, Minneapolis, MN, USA) or buffer PBS (Invitrogen by Thermofisher Scientific, Illkirch-Graffenstaden, France) supplemented by 2% Fetal Bovine Serum (Invitrogen by Thermofisher Scientific, Illkirch-Graffenstaden, France) and 2 mM EDTA (Invitrogen by Thermofisher Scientific, Illkirch-Graffenstaden, France) during 1 hour at 4° C. To determine EC50 value, 8 concentrations of anti-CCR8 mAb were tested. Unbound antibodies were washed away with PBS (Invitrogen by Thermofisher Scientific, Illkirch-Graffenstaden, France) supplemented by 2% Fetal Bovine Serum (Invitrogen by Thermofisher Scientific, Illkirch-Graffenstaden, France) and 2 mM EDTA (Invitrogen by Thermofisher Scientific, Illkirch-Graffenstaden, France). Subsequently, cells are centrifuged (5 min at 400 g) and bound antibody is detected with F(ab′)₂-Goat anti-Mouse IgG (H+L) Cross-Adsorbed Secondary Antibody, Alexa Fluor 488 (dilution 1/500) (Invitrogen by Thermofisher Scientific, Illkirch-Graffenstaden, France) or with F(ab′)₂-Goat anti-Human IgG Fc Secondary Antibody, PE (Invitrogen by Thermofisher Scientific, Illkirch-Graffenstaden, France) (dilution 1/1000) at 4° C. for 30 min. Detection reagent is washed away and cells are centrifuged (5 min at 400 g) and resuspended in 30 μL PBS. Bound detection antibody is quantified on a MacsQuant16 (Miltenyi, Gladbach, Germany) (B1 or B2 channel, 5000 events per acquisition). During the experiment, the respective isotype mAb controls (mouse IgG1, mouse IgG2a, mouse IgG2b, mouse IgG3 or human IgG1) (Biolegend, Amsterdam, The Netherlands) are included to exclude any unspecific binding events.

human CCR8 [6] = target: T1, human CCR8; experiment: flow cytometry, inhibition of hCCL1-AF647 binding to hCCR8 CHO cells
Protocol: The hCCR8 transfected CHO cell line was dispatched at a density of 1·10⁵ per well in a 96-well plate. Cells were incubated for 30 min at 4° C. with or without anti-CCR8 mAb tested at 10 μg/mL then diluted at 1/3. Unbound antibodies were washed away with PBS (Gibco, Villebon-sur-Yvette, France) supplemented by 2% Fetal Bovine Serum (Invitrogen by Thermofisher Scientific, Illkirch-Graffenstaden, France) and 2 mM EDTA. […] After washing unbound ligands, CCL1 bound detection is quantified on a MacsQuant16 (Miltenyi, Gladbach, Germany) (R1 channel, 5 000 events per acquisition).
For IC₅₀ determination, a concentration response curve is performed using 8 concentrations of mAb. Curves are fitted and IC₅₀ of CCL1 binding blocking activity is calculated using the sigmoidal dose-response (variable slope) model on GraphPad Prism 9 (GraphPad Software, San Diego, CA, USA).

[7] = target: pm5, modified CCR8 related peptide (human, sulfated tyrosines at Y15 and Y17); experiment: ELISA on coated CCR8 peptide (500 ng/mL), OD [cont.]
Summary of the method: (§1)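 Binding is scored by optical density: plates carry 500 ng/mL peptide in carbonate/bicarbonate buffer, receive mAb at 1 μg/mL or diluted 1/10 for 90 min at room temperature, then TMB for 15 min.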

[8] = target: pm6, modified CCR8 related peptide (human, sulfated tyrosines at Y16 and Y17); experiment: as above
Summary of the method: as §1

[9] = target: pm8, modified CCR8 related peptide (human, sulfated tyrosines at Y15, Y16 and Y17); experiment: as above
Summary of the method: as §1

[10] = target: T2, pwt1, unmodified CCR8 related peptide (human, none (non-sulfated Y15, Y16, Y17)); experiment: as above
T2 construct: First 34 amino acids of human CCR8, synthetic; also called unmodified peptide
Summary of the method: as §1

[11] = target: pm1, modified CCR8 related peptide (human, sulfated tyrosine at Y15); experiment: as above
Summary of the method: as §1

[12] = target: pm2, modified CCR8 related peptide (human, sulfated tyrosine at Y16); experiment: as above
Summary of the method: as §1

[13] = target: pm3, modified CCR8 related peptide (human, sulfated tyrosine at Y17); experiment: as above
Summary of the method: as §1

[14] = target: pm4, modified CCR8 related peptide (human, sulfated tyrosines at Y15 and Y16); experiment: as above
Summary of the method: as §1

Sequence of pm1, modified CCR8 related peptide (human, sulfated tyrosine at Y15) (peptide, as listed by the source): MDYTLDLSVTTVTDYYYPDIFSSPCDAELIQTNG
T2 sequence (peptide, as listed by the source): as above
Sequence of pm8, modified CCR8 related peptide (human, sulfated tyrosines at Y15, Y16 and Y17) (peptide, as listed by the source): as above
Sequence of pm5, modified CCR8 related peptide (human, sulfated tyrosines at Y15 and Y17) (peptide, as listed by the source): as above
Sequence of pm3, modified CCR8 related peptide (human, sulfated tyrosine at Y17) (peptide, as listed by the source): as above
Sequence of pm2, modified CCR8 related peptide (human, sulfated tyrosine at Y16) (peptide, as listed by the source): as above
Sequence of pm4, modified CCR8 related peptide (human, sulfated tyrosines at Y15 and Y16) (peptide, as listed by the source): as above
Sequence of pm6, modified CCR8 related peptide (human, sulfated tyrosines at Y16 and Y17) (peptide, as listed by the source): as above

| Binder | IC50, CCL1 induced hCCR8 Gi2 signaling (BRET, HEK-293) (human CCR8 [1]) | hCCL1 (100 nM) residual response in %, Protocol #2, mAb 0.08 µg/mL (0.53 nM) (human CCR8 [2]) [%] | hCCL1 (100 nM) residual response in %, Protocol #2, mAb 0.4 µg/mL (2.67 nM) (human CCR8 [2]) [%] | hCCL1 (100 nM) residual response in %, Protocol #2, mAb 10 µg/mL (66.7 nM) (human CCR8 [2]) [%] | hCCL1 (100 nM) residual response in %, Protocol #3, mAb 0.05 µg/mL (0.33 nM) (human CCR8 [2]) [%] | hCCL1 (100 nM) residual response in %, Protocol #3, mAb 0.5 µg/mL (3.33 nM) (human CCR8 [2]) [%] | hCCL1 (100 nM) residual response in %, Protocol #3, mAb 5 µg/mL (33.3 nM) (human CCR8 [2]) [%] | Top plateau values in presence of 5 µg/mL mAb (% of hCCL1 (100 nM)), protocol #3 (human CCR8 [3]) [%] | IC50, CCL1 induced hCCR8 Gi2 signaling (BRET) at pH 6.5 (human CCR8 [4]) | % positive cells (human CCR8 [5]) [%] | MFI fold change to isotype ctrl (human CCR8 [5]) [fold] | IC50 (human CCR8 [6]) | binding result [7] | binding result [8] | binding result [9] | binding result [10] | binding result [11] | binding result [12] | binding result [13] | binding result [14] | further results |
| --- | --- | --- | --- | --- | --- | --- | --- | --- | --- | --- | --- | --- | --- | --- | --- | --- | --- | --- | --- | --- | --- |
| anti-CCR8 mAb 2-11 (antibody, V domains shown) VH: EVQLQQSGPELVKPGASVKISCKASVYSFTGSYMHWVKQSHVKSLEWIGRINPYNGATSYNQNFKDKASLTVDKSSSTAYMELHSLTSEDSAVYYCATTLLRLLDYWGQGTTLTVSS VL: DIVMTQAAFSNPVTLGTSASISCRSSKSLLHSNGITYLYWYLQKPGQSPQLLIYQMSNLASGVPDRFSSSGSGTDFTLRISRVEAEDVGVYYCAQNLELPWTFGGGTKLEIK | 0.092 µg/mL and 0.616 nM | 97 | 96 | 84 | 96 | 81 | 73 | 292 | 0.162 µg/ml and 1.08 nM | 34.7 | 2.34 | 6.41 µg/mL and 43 nM | – | – | – | – | – | – | – | – | IC50, CCL1 induced hCCR8 Gi2 signaling (BRET) at pH 7.4 (human CCR8 [4]): 0.152 µg/ml and 1.01 nM |
| anti-CCR8 mAb 2-10 (antibody, V domains shown) VH: QVQVQQSGAELARPGASVKMSCKASGYTFTTYAMHWVKQRPGQGLEWIGHINPSSGYSNYNQKFKDKATLTADKSSSTAYMQLSSLTSEDSAVYYCARSEVRRGYFDVWGAGTTVTVSS VL: DIQMTQTTSSLSASLGDRVTISCRTSQDIRNYLNWYQQKPDGTVKLLISYTSRLHSGVPSRFSGSGSGTDYSLTISNLEQEDFATYFCQQGNTLPPTFGGGTRVEIK | 0.004 µg/mL and 0.029 nM | 52 | 68 | 53 | 76 | 62 | 59 | 948 | – | 77 | 9.2 | 0.22 µg/mL and 1.46 nM | binds | binds | binds | binds | binds | binds | binds | binds | – |
| anti-CCR8 mAb 2-1 (antibody, V domains shown) VH: KVQLQQSGPELVKPGASVKISCKTSGYTFTEYTIHWVQQIHGKSPEWIGGINPNGDTRYDQKFKGKATLTIDKSSSTAYMELRSLTSEDSAVYYCARVARFYGISPYAMDYWGQGTSVTVSS VL: DVVMTQTPLSLPVSLGDQASISCRCTQSLLHSNGDTYLHWYLQKPGQSPNLLIYKVSNRFSGVPDRFSGSGSGTDFTLKINRVEAEDLGVYFCSQSTHVPYTFGGGTNLEIK | 0.462 nM and 0.069 µg/mL | 101 | 93 | 100 | 92 | 81 | 73 | 663 | 0.051 µg/ml and 0.34 nM | 85.7 | 9.8 | 1.29 µg/mL and 8.62 nM | binds | binds | binds | binds | binds | binds | binds | binds | IC50, CCL1 induced hCCR8 Gi2 signaling (BRET) at pH 7.4 (human CCR8 [4]): 0.059 µg/ml and 0.396 nM |
| anti-CCR8 mAb 2-4 (antibody, V domains shown) VH: EVQLQQSGPELVKPGASVKISCKTSGYTFTEYTIHWVKQSHGESLEWVGGINPNNGNTRYDQKFKGKATLTIDKSSSPAYMELRSLTSEDSAVYYCARVARSSGSGPYAMDYWGQGTSVTVSS VL: DVVMTQTPLSLPVSLGDQASISCRCTQSLLHTNGDTYLHWYLQKPGQSPKLLIYKVSNRFSGVPDRFSGSGSGTDFTLKISRVEAEDLGVYFCSQSTHVPYTFGGGTKLEIK | 0.046 µg/mL and 0.306 nM | 104 | 46 | 28 | 80 | 57 | 45 | 855 | – | 56.2 | 4.78 | 0.6 µg/mL and 4.01 nM | binds | binds | binds | binds | binds | binds | binds | binds | – |
